Source: patent US7642244 (Hoffmann-La Roche, dated 2010)
Starred links: 1 amine or outer side, 2 acyl side, 3 side chain; linkers in the order of their positions; H or OH if unused. Non-standard residues stand in square brackets, D forms with d. Primed or numbered codes have the meaning given here. *: point of attachment. Pqa = 4-oxo-6-(1-piperazinyl)-3(4H)-quinazoline-acetic acid, O=C(Cn1cnc2ccc(N3CCN([*:1])CC3)cc2c1=O)[*:2]; Adamantane1carbonyl = O=C(C12CC3CC(CC(C3)C1)C2)*; PEG30,000 SSA″ = PEG-CH2CH2NHCOCH2CH2CO-; PEG30,000 SPA = (PEG-30,000)CH2CH2CO; NMeR = CN[C@@H](CCCNC(=N)N)C(=O)O

T1: human NPY2 receptor (human, UniProt P49146 1-381)
T1 sequence (looked up): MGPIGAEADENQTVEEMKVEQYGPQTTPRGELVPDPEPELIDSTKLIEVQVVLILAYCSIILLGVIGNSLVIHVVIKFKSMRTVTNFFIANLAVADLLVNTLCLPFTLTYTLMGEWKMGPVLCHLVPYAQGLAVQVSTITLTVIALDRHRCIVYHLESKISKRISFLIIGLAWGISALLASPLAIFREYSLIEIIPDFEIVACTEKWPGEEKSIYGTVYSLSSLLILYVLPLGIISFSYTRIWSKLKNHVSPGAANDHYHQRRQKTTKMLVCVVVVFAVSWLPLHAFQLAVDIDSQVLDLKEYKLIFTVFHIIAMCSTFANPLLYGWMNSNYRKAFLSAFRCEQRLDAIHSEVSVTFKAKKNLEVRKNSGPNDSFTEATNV

T2: Y5R
T2 sequence (Q15761 whole entry, species assumed, looked up): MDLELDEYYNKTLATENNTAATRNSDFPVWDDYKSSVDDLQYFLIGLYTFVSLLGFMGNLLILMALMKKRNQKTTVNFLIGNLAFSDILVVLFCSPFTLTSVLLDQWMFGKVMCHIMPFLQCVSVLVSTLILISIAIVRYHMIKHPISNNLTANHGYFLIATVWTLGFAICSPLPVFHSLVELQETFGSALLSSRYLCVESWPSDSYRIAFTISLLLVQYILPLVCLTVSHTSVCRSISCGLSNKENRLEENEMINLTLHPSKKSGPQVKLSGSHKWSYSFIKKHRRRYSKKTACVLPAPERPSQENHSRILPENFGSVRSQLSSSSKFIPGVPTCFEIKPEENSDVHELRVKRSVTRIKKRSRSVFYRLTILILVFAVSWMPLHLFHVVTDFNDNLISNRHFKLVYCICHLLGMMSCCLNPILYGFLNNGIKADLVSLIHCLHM

B1: H-Ile-Lys-Pqa-Arg-His-Tyr-Leu-Asn-Leu-Val-Thr-Arg-Gln-NMe)Arg-Trp-NH2 (peptide)
peptide: IKXRHYLNLVTRQRW
HELM: PEPTIDE1{I.K.[O=C(Cn1cnc2ccc(N3CCN([*:1])CC3)cc2c1=O)[*:2]].R.H.Y.L.N.L.V.T.R.Q.[meR].W.[am]}$$$$V2.0
SMILES: CC[C@H](C)[C@H](N)C(=O)N[C@@H](CCCCN)C(=O)N1CCN(c2ccc3ncn(CC(=O)N[C@@H](CCCNC(=N)N)C(=O)N[C@@H](Cc4c[nH]cn4)C(=O)N[C@@H](Cc4ccc(O)cc4)C(=O)N[C@@H](CC(C)C)C(=O)N[C@@H](CC(N)=O)C(=O)N[C@@H](CC(C)C)C(=O)N[C@H](C(=O)N[C@H](C(=O)N[C@@H](CCCNC(=N)N)C(=O)N[C@@H](CCC(N)=O)C(=O)N(C)[C@@H](CCCNC(=N)N)C(=O)N[C@@H](Cc4c[nH]c5ccccc45)C(N)=O)[C@@H](C)O)C(C)C)c(=O)c3c2)CC1

Experiments:
Experiment in all cases: cell-based or functional assay
[1] = target: T1, human NPY2 receptor
[2] = target: Y1R
Chain of Y1R (P25929 whole entry): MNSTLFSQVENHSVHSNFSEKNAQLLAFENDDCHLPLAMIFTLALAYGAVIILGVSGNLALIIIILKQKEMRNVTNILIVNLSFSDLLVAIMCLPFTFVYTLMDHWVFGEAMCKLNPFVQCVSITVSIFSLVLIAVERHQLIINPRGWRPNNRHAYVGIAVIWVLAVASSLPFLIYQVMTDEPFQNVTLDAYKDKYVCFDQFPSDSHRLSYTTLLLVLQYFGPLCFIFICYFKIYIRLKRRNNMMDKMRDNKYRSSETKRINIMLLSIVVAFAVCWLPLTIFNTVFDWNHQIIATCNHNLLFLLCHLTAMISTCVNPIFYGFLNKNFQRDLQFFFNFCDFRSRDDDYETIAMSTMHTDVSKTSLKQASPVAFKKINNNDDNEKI

[3] = target: Y4R
[4] = target: T2, Y5R

Binder	Y2R EC50 (nM) FLIPR [1] [nM]	Y2R EC50 (nM) cAMP [1] [nM]	Y1R EC50 (nM) FLIPR [2] [nM]	Y4R EC50 (nM) FLIPR [3] [nM]	Y5R EC50 (nM) FLIPR [4] [nM]
Adamantane1carbonyl-IK[Pqa]RHYLNWVTRQ[NMeR]Y-NH2 [Adamantoyl-Ile-Lys-Pqa-Arg-His-Tyr-Leu-Asn-Trp-Val-Thr-Arg-Gln-(NMe)Arg-Tyr-NH2]	2.33	2.9	> 5000	> 5000	> 5000
Ac-IK(PEG30,000 SPA)[Pqa]RHYLNWVTRQ[NMeR]Y-NH2 [Ac-Ile(PEG-30,000)CH2CH2CO(ε)Lys-Pqa-Arg-His-Tyr-Leu-Asn-Trp-Val-Thr-Arg-Gln-(NMe)Arg-Tyr-NH2]	549	24.4	> 5000	> 5000	> 5000
Ac-IK(PEG30,000 SSA″)[Pqa]RHYLNWVTRQ[NMeR]Y-NH2	1080	20.7	> 5000	> 5000	> 5000
B1	0.454	1.06	> 5000	> 5000	> 5000
